Experiment [1] deals with mouse melanocortin-4 receptor (mouse) (UniProt P56450). Description: 125I-NDP-MSH competitive displacement, HEK293 cells stably expressing mMC4R; here negative = weaker binder than SKY4-48-1.
Experiment [2] deals with mouse melanocortin-3 receptor (mouse) (UniProt P33033). Description: 125I-NDP-MSH competitive displacement, HEK293 cells stably expressing mMC3R.
The target in experiment [3] is mouse melanocortin-4 receptor (mouse) (UniProt P56450). Description: 125I-NDP-MSH competitive displacement, HEK293 cells stably expressing mMC4R.
Experiment [4] addresses mouse melanocortin-3 receptor (mouse) (UniProt P33033). Description: cell-based or functional assay.
Experiment [5] concerns the target mouse melanocortin-4 receptor (mouse) (UniProt P56450). Briefly: cell-based or functional assay.

Square brackets hold non-standard residues; d marks the D form. Phe(4-I) = N[C@@H](Cc1ccc(I)cc1)C(=O)O Bounds are passed on as bounds.

Sequence of mouse melanocortin-4 receptor (mouse) (P56450 whole entry): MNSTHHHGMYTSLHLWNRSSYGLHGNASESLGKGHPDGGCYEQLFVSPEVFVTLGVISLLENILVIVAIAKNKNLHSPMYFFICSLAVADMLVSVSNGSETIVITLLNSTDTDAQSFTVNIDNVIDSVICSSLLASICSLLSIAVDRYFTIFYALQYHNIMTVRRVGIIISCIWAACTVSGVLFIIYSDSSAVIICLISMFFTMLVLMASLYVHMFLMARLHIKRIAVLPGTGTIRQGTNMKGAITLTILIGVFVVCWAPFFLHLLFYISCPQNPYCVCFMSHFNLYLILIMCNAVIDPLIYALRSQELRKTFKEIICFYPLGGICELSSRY
Sequence of mouse melanocortin-3 receptor (mouse) (P33033 whole entry): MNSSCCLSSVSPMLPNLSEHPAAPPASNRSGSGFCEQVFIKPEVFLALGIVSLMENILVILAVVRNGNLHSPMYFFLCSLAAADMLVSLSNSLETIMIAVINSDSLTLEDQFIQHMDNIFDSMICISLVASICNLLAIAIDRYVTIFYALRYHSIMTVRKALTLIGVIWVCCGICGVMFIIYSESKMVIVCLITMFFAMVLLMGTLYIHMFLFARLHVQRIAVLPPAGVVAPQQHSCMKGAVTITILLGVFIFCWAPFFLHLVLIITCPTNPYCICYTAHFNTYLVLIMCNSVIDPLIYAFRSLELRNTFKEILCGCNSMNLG

B1: SKY5-122-2, Ac-DPhe-(pI)Phe-DArg-DHis-NH2 (peptide)
peptide: Ac-[dF][Phe(4-I)][dR][dH]-NH2
SMILES: CC(=O)N[C@H](Cc1ccccc1)C(=O)N[C@@H](Cc1ccc(I)cc1)C(=O)N[C@H](CCCNC(=N)N)C(=O)N[C@H](Cc1c[nH]cn1)C(N)=O
For the molecule B1, in experiment [1], the Fold Diff. (IC50 against SKY4-48-1) was -326 fold. In addition, in experiment [2], the Fold Diff. (IC50 against SKY4-48-1) turned out to be 14 fold and the IC50 (commonly the concentration at which inhibition is half-maximal) was 3.5 µM. In experiment [3], this molecule registered an IC50 of 39.5 µM. Further, in experiment [4], the Agonist Activity EC50 was > 100 µM, the Antagonist Activity K worked out at 400 nM, the Antagonist Ki amounted to 398 nM and the pA2 (antagonist) worked out at 6.4 pA2. Besides, in experiment [5], the Agonist Activity, % stimulation relative to maximum turned out to be 16 % @ 100 µM; the Agonist, % of NDP-MSH maximal response came out at 16 % @ 100 µM; the Antagonist Ki was > 3.1 µM.

The values are drawn from US20170342107A1.
